{
  "source": "the RNAGym collection of RNA variant scans (doi:10.1093/molbev/msab373)",
  "parents": {"B1": {"name": "Azoarcus group I ribozyme (parent)", "chain": "GUGCCUUGCGCCGGGAAACCACGCAAGGGAUGGUGUCAAAUUCGGCGAAACCUAAGCGCCCGCCCGGGCGUAUGGCAACGCCGAGCCAAGCUUCGGCGCCUGCGCCGAUGAAGGUGUAGAGACUAGACGGCACCCACCUAAGGCAAACGCUAUGGUGAAGGCAUAGUCCAGGGAGUGGCGAAAGUCACACAAACCGG"}},
  "data": [
    {"variants_of": "B1", "test": "reverse-splicing fitness (ratio to wild type); higher = more active; in vitro selection; Mg2+ level not given", "summary_of_the_method": "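An in vitro group I ribozyme library with randomized positions was T7-transcribed and gel-purified. In triplicate, 10 pmol RNA in EPPS pH 7.5 was reacted with 50 pmoles of a 30-nt RNA substrate for 1 h at 37 °C across several added MgCl2 levels (1–48 mM), then stopped with EDTA. Products were reverse transcribed from a substrate-complementary primer, PCR-amplified and sequenced (HiSeq 4000). Fitness is a variant's read proportion after selection over that before, normalised to wild type.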", "values": [
      {"variant": "C82G A111C A120G A145U C150A", "reverse-splicing fitness": 0.00783},
      {"variant": "C82G A111C A120G A145U C150U", "reverse-splicing fitness": 0.0124},
      {"variant": "C82G A111C A120G A145U C150G", "reverse-splicing fitness": 0.00698},
      {"variant": "C82G A111C A120G A145G C150A C169G U176G", "reverse-splicing fitness": 0.0058},
      {"variant": "C82G A111C A120G A145G C150A C169G U176A", "reverse-splicing fitness": 0.0158},
      {"variant": "C82G A111C A120G A145G C150A C169G U176C", "reverse-splicing fitness": 0.0267},
      {"variant": "C82G A111C A120G C150U C169A", "reverse-splicing fitness": 0.0111},
      {"variant": "C82G A111C A120G C150U C169G", "reverse-splicing fitness": 0.0113},
      {"variant": "C82G A111C A120G C150U C169U", "reverse-splicing fitness": 0.00939},
      {"variant": "C82G A111C A120G C150U C169U U176A", "reverse-splicing fitness": 0.0146},
      {"variant": "C82G A111C A120G C150U C169U U176G", "reverse-splicing fitness": 0.00546},
      {"variant": "C82G A111C A120G C150U C169U U176C", "reverse-splicing fitness": 0.0156},
      {"variant": "C82G A111C A120C C150U C169U U176C", "reverse-splicing fitness": 0.0142},
      {"variant": "C82G A111C A120C C150U C169U U176G", "reverse-splicing fitness": 0.00857},
      {"variant": "C82G A111C A120C C150U C169U U176A", "reverse-splicing fitness": 0.0158},
      {"variant": "C82G A111C A120G C150A C169A", "reverse-splicing fitness": 0.0116},
      {"variant": "C82G A111C A120G C150A C169U", "reverse-splicing fitness": 0.00859},
      {"variant": "C82G A111C A120G C150A C169G", "reverse-splicing fitness": 0.00935},
      {"variant": "C82G A111C A120G C150A C169A U176A", "reverse-splicing fitness": 0.0179},
      {"variant": "C82G A111C A120G C150A C169A U176C", "reverse-splicing fitness": 0.0214},
      {"variant": "C82G A111C A120G C150A C169A U176G", "reverse-splicing fitness": 0.00716},
      {"variant": "C82G A111C A120G A145U C150G C169U", "reverse-splicing fitness": 0.0085},
      {"variant": "C82G A111C A120G A145U C150G C169G", "reverse-splicing fitness": 0.00781},
      {"variant": "C82G A111C A120G A145U C150G C169A", "reverse-splicing fitness": 0.00965},
      {"variant": "C82G A111C A120U A145C C150A C169U U176C", "reverse-splicing fitness": 0.00331},
      {"variant": "C82G A111C A120U A145C C150A C169U U176G", "reverse-splicing fitness": 0.00237},
      {"variant": "C82G A111C A120U A145C C150A C169U U176A", "reverse-splicing fitness": 0.00291},
      {"variant": "C82G A111C A120G A145G C150A C169U U176G", "reverse-splicing fitness": 0.00638},
      {"variant": "C82G A111C A120G A145G C150A C169U U176C", "reverse-splicing fitness": 0.0159},
      {"variant": "C82G A111C A120G A145G C150A C169U U176A", "reverse-splicing fitness": 0.014},
      {"variant": "C82G A111C A120G A145U C150U C169A U176G", "reverse-splicing fitness": 0.006},
      {"variant": "C82G A111C A120G A145U C150U C169A U176C", "reverse-splicing fitness": 0.0109},
      {"variant": "C82G A111C A120G A145U C150U C169A U176A", "reverse-splicing fitness": 0.0109},
      {"variant": "C82G A111C A120G A145C U176C", "reverse-splicing fitness": 0.0166},
      {"variant": "C82G A111C A120G A145C U176A", "reverse-splicing fitness": 0.0152},
      {"variant": "C82G A111C A120G A145C U176G", "reverse-splicing fitness": 0.00507},
      {"variant": "C82G A111C A120G A145C C150G", "reverse-splicing fitness": 0.00634},
      {"variant": "C82G A111C A120G A145C C150A", "reverse-splicing fitness": 0.00698},
      {"variant": "C82G A111C A120G A145C C150U", "reverse-splicing fitness": 0.00925},
      {"variant": "C82G A111C A120C C150A C169G U176G", "reverse-splicing fitness": 0.00766},
      {"variant": "C82G A111C A120C C150A C169G U176A", "reverse-splicing fitness": 0.0183},
      {"variant": "C82G A111C A120C C150A C169G U176C", "reverse-splicing fitness": 0.0225},
      {"variant": "C82G A111C A120C C169U U176C", "reverse-splicing fitness": 0.0163},
      {"variant": "C82G A111C A120C C169U U176A", "reverse-splicing fitness": 0.0183},
      {"variant": "C82G A111C A120C C169U U176G", "reverse-splicing fitness": 0.00655},
      {"variant": "C82G A111C A120G A145G U176G", "reverse-splicing fitness": 0.00675},
      {"variant": "C82G A111C A120G A145G U176A", "reverse-splicing fitness": 0.017},
      {"variant": "C82G A111C A120G A145G U176C", "reverse-splicing fitness": 0.0204},
      {"variant": "C82G A111C A120G A145U C150A C169G U176C", "reverse-splicing fitness": 0.0153},
      {"variant": "C82G A111C A120G A145U C150A C169G U176G", "reverse-splicing fitness": 0.00522},
      {"variant": "C82G A111C A120G A145U C150A C169G U176A", "reverse-splicing fitness": 0.0126},
      {"variant": "C82G A111C A120C C150G U176G", "reverse-splicing fitness": 0.00427},
      {"variant": "C82G A111C A120C C150G U176C", "reverse-splicing fitness": 0.00847},
      {"variant": "C82G A111C A120C C150G U176A", "reverse-splicing fitness": 0.00574},
      {"variant": "C82G A111C A120C C150U U176G", "reverse-splicing fitness": 0.00767},
      {"variant": "C82G A111C A120C C150U U176C", "reverse-splicing fitness": 0.0226},
      {"variant": "C82G A111C A120C C150U U176A", "reverse-splicing fitness": 0.0157},
      {"variant": "C82G A111C A120G A145U C169U U176A", "reverse-splicing fitness": 0.0144},
      {"variant": "C82G A111C A120G A145U C169U U176C", "reverse-splicing fitness": 0.014},
      {"variant": "C82G A111C A120G A145U C169U U176G", "reverse-splicing fitness": 0.00395},
      {"variant": "C82G A111C A120G C150G C169G U176A", "reverse-splicing fitness": 0.00677},
      {"variant": "C82G A111C A120G C150G C169G U176C", "reverse-splicing fitness": 0.00508},
      {"variant": "C82G A111C A120G C150G C169G U176G", "reverse-splicing fitness": 0.00467},
      {"variant": "C82G A111C A120C C150G C169U U176G", "reverse-splicing fitness": 0.00751},
      {"variant": "C82G A111C A120C C150G C169U U176A", "reverse-splicing fitness": 0.00786},
      {"variant": "C82G A111C A120C C150G C169U U176C", "reverse-splicing fitness": 0.0107},
      {"variant": "C82G A111C A120U A145C C150A C169A U176C", "reverse-splicing fitness": 0.00225},
      {"variant": "C82G A111C A120U A145C C150A C169A U176A", "reverse-splicing fitness": 0.00209},
      {"variant": "C82G A111C A120U A145C C150A C169A U176G", "reverse-splicing fitness": 0.00281},
      {"variant": "C82G A111C A120G A145C C169G U176G", "reverse-splicing fitness": 0.00429},
      {"variant": "C82G A111C A120G A145C C169G U176C", "reverse-splicing fitness": 0.0171},
      {"variant": "C82G A111C A120G A145C C169G U176A", "reverse-splicing fitness": 0.0233},
      {"variant": "C82G A111C A120C C150U C169G U176G", "reverse-splicing fitness": 0.0066},
      {"variant": "C82G A111C A120C C150U C169G U176A", "reverse-splicing fitness": 0.0152},
      {"variant": "C82G A111C A120C C150U C169G U176C", "reverse-splicing fitness": 0.0171},
      {"variant": "C82G A111C A120C C150A C169A U176G", "reverse-splicing fitness": 0.00868},
      {"variant": "C82G A111C A120C C150A C169A U176A", "reverse-splicing fitness": 0.0164},
      {"variant": "C82G A111C A120C C150A C169A U176C", "reverse-splicing fitness": 0.019},
      {"variant": "C82G A111C A120G A145U C150A C169G", "reverse-splicing fitness": 0.00764},
      {"variant": "C82G A111C A120G A145U C150A C169A", "reverse-splicing fitness": 0.00884},
      {"variant": "C82G A111C A120G A145U C150A C169U", "reverse-splicing fitness": 0.00666},
      {"variant": "C82G A111C A120G C150A C169U U176A", "reverse-splicing fitness": 0.022},
      {"variant": "C82G A111C A120G C150A C169U U176C", "reverse-splicing fitness": 0.0171}
    ]}
  ]
}
